According to patent publication US20230257470A1 (published 2023):

Assays:
[1] = target: T1, human FcγRIIb (human, UniProt P31994 43-217, limits assumed); experiment: SPR, captured antibody, FcγR as analyte
T1 construct: Soluble analyte in SPR; also called FcgRIIb; FcγIIB
T1 sequence: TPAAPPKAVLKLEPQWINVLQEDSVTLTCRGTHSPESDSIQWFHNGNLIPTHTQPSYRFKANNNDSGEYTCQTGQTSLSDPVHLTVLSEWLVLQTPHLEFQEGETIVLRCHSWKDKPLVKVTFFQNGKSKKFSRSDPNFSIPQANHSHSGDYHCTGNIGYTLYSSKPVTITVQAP

[2] = target: T2, mouse FcγRIIb (mouse, UniProt P08101 40-217, limits assumed); experiment: SPR, antibody captured by Protein L, mouse FcγR injected, pH 7.4
T2 construct: Bought protein; construct not described; also called mFcgRIIb
T2 sequence (looked up): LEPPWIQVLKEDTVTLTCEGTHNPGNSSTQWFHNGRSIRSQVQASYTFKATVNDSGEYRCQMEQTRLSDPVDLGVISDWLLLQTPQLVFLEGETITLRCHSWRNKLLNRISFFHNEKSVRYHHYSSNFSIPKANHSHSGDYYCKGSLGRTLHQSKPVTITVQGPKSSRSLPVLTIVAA

[3] = target: T3, mouse FcγRI (mouse, UniProt P26151 25-297); experiment: as above
T3 construct: Bought protein; construct not described; also called mFcgRI
T3 sequence (looked up): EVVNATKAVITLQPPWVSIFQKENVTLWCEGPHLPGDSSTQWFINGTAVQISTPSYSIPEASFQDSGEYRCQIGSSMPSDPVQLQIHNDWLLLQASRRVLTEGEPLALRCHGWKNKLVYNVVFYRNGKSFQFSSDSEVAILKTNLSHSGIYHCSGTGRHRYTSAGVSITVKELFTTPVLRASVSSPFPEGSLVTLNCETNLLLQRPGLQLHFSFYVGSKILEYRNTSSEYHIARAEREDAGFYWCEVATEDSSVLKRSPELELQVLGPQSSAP

[4] = target: T4, mouse FcγRIII (mouse, UniProt P08508 31-215); experiment: as above
T4 construct: Bought protein; construct not described; also called mFcgRIII
T4 sequence (looked up): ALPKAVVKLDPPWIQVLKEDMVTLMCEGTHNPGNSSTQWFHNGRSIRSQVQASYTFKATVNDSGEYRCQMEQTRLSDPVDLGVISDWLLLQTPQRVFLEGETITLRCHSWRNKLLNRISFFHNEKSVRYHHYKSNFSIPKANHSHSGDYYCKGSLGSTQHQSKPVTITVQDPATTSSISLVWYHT

[5] = target: T5, human FcγRIIa(R) (allotype R131) (human, UniProt P12318 36-217); experiment: SPR (Biacore T100), ratio of the KD values of Table 24
T5 construct: Soluble analyte in SPR; also called hFcgRIIa(R); FcgRIIaR
T5 chain: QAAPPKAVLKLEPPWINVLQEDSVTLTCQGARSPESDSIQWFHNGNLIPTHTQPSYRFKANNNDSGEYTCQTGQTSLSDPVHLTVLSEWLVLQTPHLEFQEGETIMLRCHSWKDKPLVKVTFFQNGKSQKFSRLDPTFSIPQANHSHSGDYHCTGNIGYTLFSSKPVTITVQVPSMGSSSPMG

[6] = target: T6, human FcγRIIb (human, UniProt P31994 43-217, limits assumed); experiment: as above
T6 construct: Soluble analyte in SPR; also called hFcgRIIb; FcgRIIb
T6 sequence: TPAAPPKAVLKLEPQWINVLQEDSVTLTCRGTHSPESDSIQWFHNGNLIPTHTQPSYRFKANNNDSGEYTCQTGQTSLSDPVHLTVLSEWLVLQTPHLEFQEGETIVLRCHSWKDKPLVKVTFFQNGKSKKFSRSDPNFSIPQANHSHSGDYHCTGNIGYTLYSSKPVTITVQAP

[7] = target: T7, human FcγRIa (human, UniProt P12314 16-292, limits assumed); experiment: as above
T7 construct: Soluble analyte in SPR; also called hFcgRIa; FcgRIa
T7 sequence (P12314 16-292 limits assumed): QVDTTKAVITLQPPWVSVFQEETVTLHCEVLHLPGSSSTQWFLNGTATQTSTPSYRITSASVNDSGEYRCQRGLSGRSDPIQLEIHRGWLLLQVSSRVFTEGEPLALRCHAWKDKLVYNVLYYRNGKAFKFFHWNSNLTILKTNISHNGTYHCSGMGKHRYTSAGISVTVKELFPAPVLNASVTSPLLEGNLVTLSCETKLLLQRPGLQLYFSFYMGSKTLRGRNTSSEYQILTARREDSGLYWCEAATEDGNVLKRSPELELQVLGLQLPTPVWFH

[8] = target: T8, human FcγRIIa(H) (allotype H131) (human, UniProt P12318 36-217); experiment: as above
T8 construct: Soluble analyte in SPR; also called hFcgRIIa(H); FcgRIIaH
T8 sequence: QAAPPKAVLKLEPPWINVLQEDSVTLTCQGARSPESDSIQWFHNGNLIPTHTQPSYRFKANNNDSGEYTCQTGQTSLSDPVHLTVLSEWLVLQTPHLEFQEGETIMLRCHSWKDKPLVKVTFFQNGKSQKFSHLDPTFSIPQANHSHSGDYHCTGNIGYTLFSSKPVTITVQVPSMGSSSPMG

[9] = target: T9, human FcγRIIa type R (human, UniProt P12318 36-217); experiment: SPR (Biacore), antibody captured on Protein A chip, FcγR as analyte, 25 C, method of Example 14
T9 construct: also called FcγRIIaR; FcγRIIa(R)
T9 chain: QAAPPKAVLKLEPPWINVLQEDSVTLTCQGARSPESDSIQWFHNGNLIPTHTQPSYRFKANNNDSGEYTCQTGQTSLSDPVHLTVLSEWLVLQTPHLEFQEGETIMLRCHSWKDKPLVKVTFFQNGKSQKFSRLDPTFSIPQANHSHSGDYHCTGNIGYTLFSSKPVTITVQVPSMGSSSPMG

Binder | relative binding activity [1] | binding result [2] | binding result [3] | binding result [4] | other results
GpH7-B3 variant D265M/GpL16-k0 (antibody, human IgG1, copies: 2 + 2) heavy: not shown light: DIVMTQSPLSLPVTPGEPASISCQASESLVHSNRNTYLHWYLQKPGQSPQLLIYKVSNRFSGVPDRFSGSGSGTDFTLKISRVEAEDVGVYYCSQNTHVPPTFGQGTKVEIE | 2 % of GpH7-B3/GpL16-k0 |  |  |  | 
GpH7-B3 variant G237R/GpL16-k0 (antibody, human IgG1, copies: 2 + 2) heavy: not shown light: DIVMTQSPLSLPVTPGEPASISCQASESLVHSNRNTYLHWYLQKPGQSPQLLIYKVSNRFSGVPDRFSGSGSGTDFTLKISRVEAEDVGVYYCSQNTHVPPTFGQGTKVEIE | 1 % of GpH7-B3/GpL16-k0 |  |  |  | 
VH3/L(WT)-IgG1-F821 (antibody, L235R/S239K variant of VH3-IgG1-F11 with L(WT)-CK; also called VH3-IgG1-F821; copies: 2 + 2) heavy: QVQLQESGPGLVKPSETLSLTCAVSGHSISHDHAWSWVRQPPGEGLEWIGFISYSGITNYNPSLQGRVTISRDNSKNTLYLQMNSLRAEDTAVYYCARSLARTTAMDYWGEGTLVTVSSASTKGPSVFPLAPSSKSTSGGTAALGCLVKDYFPEPVTVSWNSGALTSGVHTFPAVLQSSGLYSLSSVVTVPSSSLGTQTYICNVNHKPSNTKVDKKVEPKSCDKTHTCPPCPAPELRGGPKVFLFPPKPKDTLYISRTPEVTCVVVDVSHEDPEVKFNWYVDGVEVHNAKTKPREEQYNSTYRVVSVLTVLHQDWLNGKEYKCKVSNKALPAPIEKTISKAKGQPREPQVYTLPPSRDELTKNQVSLTCLVKGFYPSDIAVEWESNGQPENNYKTTPPVLDSDGSFFLYSKLTVDKSRWQQGNVFSCSVMHEALHYHYTQKSLSLSP light: not shown |  | no binding | no binding | no binding | 
VH3/L(WT)-IgG1-F939 (antibody, L235R/S239K variant of VH3-IgG1-F890 with L(WT)-CK; also called VH3-IgG1-F939; copies: 2 + 2) heavy: QVQLQESGPGLVKPSETLSLTCAVSGHSISHDHAWSWVRQPPGEGLEWIGFISYSGITNYNPSLQGRVTISRDNSKNTLYLQMNSLRAEDTAVYYCARSLARTTAMDYWGEGTLVTVSSASTKGPSVFPLAPSSKSTSGGTAALGCLVKDYFPEPVTVSWNSGALTSGVHTFPAVLQSSGLYSLSSVVTVPSSSLGTQTYICNVNHKPSNTKVDKKVEPKSCDKTHTCPPCPAPELRGGPKVFLFPPKPKDTLYISRTPEVTCVVVDVSHEDPEVKFNWYVDGVEVHNAKTKPREEQYNSTYRVVSVLTVLHQDWLNGKEYKCKVSNKALPAPIEKTISKAKGQPREPQVYTLPPSRDELTKNQVSLTCLVKGFYPSDIAVEWESNGQPENNYKTTPPVLDSDGSFFLYSKLTVDKSRWQQGNVFSCSVMHEALHYHVTQKSLSLSP light: not shown |  | no binding | no binding | no binding | 
IgG1-v1 (antibody containing IL6R-G1d_v1 as H chain and IL6R-L as L chain) (antibody, IL6R-G1d with P238D (EU numbering); also called P238D) heavy: not shown light: DIQMTQSPSSLSASVGDRVTITCRASQDISSYLNWYQQKPGKAPKLLIYYTSRLHSGVPSRFSGSGSGTDFTFTISSLQPEDIATYYCQQGNTLPYTFGQGTKVEIK |  |  |  |  | relative KD (KD of IgG1 / KD of the variant) [5]: 0.1 fold; relative KD (KD of IgG1 / KD of the variant) [6]: 4.8 fold; relative KD (KD of IgG1 / KD of the variant) [7]: 0.047 fold; relative KD (KD of IgG1 / KD of the variant) [8]: 0.014 fold
IL6R-B3/IL6R-L (antibody, human IgG1, IL6R-G1d with K439E (EU numbering); also called parent polypeptide) heavy: not shown light: DIQMTQSPSSLSASVGDRVTITCRASQDISSYLNWYQQKPGKAPKLLIYYTSRLHSGVPSRFSGSGSGTDFTFTISSLQPEDIATYYCQQGNTLPYTFGQGTKVEIK |  |  |  |  | Kd [9]: 11 µM
